These results are taken from PMC7272640, “Molecular docking, synthesis and biological evaluation of Vascular Endothelial Growth Factor (VEGF) B based peptide as antiangiogenic agent targeting the second domain of the Vascular Endothelial Growth Factor Receptor 1 (VEGFR1D2) for anticancer application” (Signal Transduction and Targeted Therapy, 2020).

Experiment [1] concerns VEGFR1 versus VEGFR2. As to conditions: cited from earlier work. The source says: Tumor angiogenesis is regulated by the binding of VEGF to receptors (VEGFRs). The major mediator of tumor angiogenesis is VEGFA, more commonly referred to as VEGF. […] However, the role of the VEGFR1 in VEGF-mediated angiogenesis remains a mystery.
Experiment [2] addresses VEGFR1 D2. Conditions: quantity not named as Kd in the text; cited from earlier work. How it is done:
(§1) Subsequently, to verify the ability of VGB3 to form a complex with VEGFR1D2, microscale thermophoresis (MST) measurements were performed using a VEGFR1D2-labeled with VGB3 at increasing concentrations. As well as measuring the Kd between VGB3 and its receptor this functional test will also confirm whether the refolded protein VEGFR1D2 assumes the correct conformation. Fluorescently labeled VEGFR1D2 purified and titrated as 1:1 with VGB3.

Experiment [3] addresses entire extracellular portion of VEGFR1. As to conditions: VEGFA to entire extracellular portion of VEGFR1; no reference given; cited from earlier work. The protocol: as §1
In experiment [4] the target is VEGFR1 domain 2 (Homo sapiens) (UniProt P17948). Conditions: cited from earlier work.
For experiment [5], the target named is VEGFR-1 (as used in the ELISA-based displacement assay) (UniProt P17948). The experiment is described as follows: ELISA; VEGFR-1-binding ELISA-based displacement assay; displacement of btVEGF165 (100 pM) by VGB3. In general terms: ELISA stands for enzyme-linked immunosorbent assay.
For experiment [6] the target is unchanged.
Experiment [7] concerns the target T1, His-tagged VEGFR1D2 (second extracellular domain of Vascular Endothelial Growth Factor Receptor 1) (UniProt P17948 129-226, fluorescently labeled).
T1 construct: VEGFR1 (Flt-1), second extracellular domain; The PDB entries are the cited complexes of VEGFR1D2 used for the design, not necessarily the limits of this construct
The experiment is described as follows: MST; fixed concentration of fluorescently labeled VEGFR1D2; VGB3 titrated at increasing concentrations, initial concentration of ligand 0.25 mM. As to conditions: both partners purified.

Bridges are numbered along the chain shown (N, C = ends).

T1 sequence (P17948 129-226): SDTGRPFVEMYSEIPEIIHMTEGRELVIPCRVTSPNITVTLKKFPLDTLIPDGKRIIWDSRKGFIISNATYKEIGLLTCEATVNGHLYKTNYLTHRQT
VEGFR-1 (as used in the ELISA-based displacement assay), sequence (P17948 27-1338): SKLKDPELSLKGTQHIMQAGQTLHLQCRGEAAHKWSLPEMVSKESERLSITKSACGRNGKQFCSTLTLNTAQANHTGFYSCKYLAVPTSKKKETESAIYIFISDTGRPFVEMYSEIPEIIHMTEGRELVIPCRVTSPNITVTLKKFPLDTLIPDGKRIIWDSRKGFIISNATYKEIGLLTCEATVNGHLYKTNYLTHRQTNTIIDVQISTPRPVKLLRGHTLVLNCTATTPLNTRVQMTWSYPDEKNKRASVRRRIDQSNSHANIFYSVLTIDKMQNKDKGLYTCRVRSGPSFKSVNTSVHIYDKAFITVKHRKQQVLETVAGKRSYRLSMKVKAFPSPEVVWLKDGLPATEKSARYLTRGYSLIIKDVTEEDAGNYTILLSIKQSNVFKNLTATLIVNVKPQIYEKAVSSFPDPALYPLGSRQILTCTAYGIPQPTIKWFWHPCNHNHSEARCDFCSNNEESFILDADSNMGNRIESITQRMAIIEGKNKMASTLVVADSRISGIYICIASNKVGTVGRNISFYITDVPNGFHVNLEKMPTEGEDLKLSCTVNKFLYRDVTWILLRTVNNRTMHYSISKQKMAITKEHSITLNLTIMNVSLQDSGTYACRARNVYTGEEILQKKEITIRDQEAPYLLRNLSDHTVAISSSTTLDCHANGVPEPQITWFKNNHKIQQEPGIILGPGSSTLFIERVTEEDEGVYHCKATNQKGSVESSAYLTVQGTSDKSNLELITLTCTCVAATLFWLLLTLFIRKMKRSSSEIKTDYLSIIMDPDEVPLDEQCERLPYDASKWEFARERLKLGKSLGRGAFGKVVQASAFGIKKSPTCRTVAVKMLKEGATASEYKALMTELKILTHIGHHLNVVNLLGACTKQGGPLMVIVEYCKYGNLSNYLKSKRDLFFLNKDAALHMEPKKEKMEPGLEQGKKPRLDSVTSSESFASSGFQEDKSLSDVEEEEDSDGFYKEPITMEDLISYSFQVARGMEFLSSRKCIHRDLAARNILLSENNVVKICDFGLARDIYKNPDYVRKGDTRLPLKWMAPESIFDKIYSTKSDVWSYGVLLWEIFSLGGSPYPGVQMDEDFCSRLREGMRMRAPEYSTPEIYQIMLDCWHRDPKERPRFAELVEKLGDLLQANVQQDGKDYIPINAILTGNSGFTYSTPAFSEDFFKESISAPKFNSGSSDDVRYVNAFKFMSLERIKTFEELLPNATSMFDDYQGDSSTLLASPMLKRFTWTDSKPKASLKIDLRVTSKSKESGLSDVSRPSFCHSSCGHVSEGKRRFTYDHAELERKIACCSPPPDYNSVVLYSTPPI
VEGFR1 domain 2 (Homo sapiens), sequence (P17948 151-214): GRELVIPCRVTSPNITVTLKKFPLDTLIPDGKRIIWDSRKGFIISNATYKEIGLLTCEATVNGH

As usually defined, the Kd is the concentration at which binding is half-saturated. For VEGF, the “affinity of VEGFR1 for VEGF, times higher than VEGFR2” value in experiment [1] is recorded as 10 times. In addition, the “tight association between VEGFR1 D2 and VEGF” value in experiment [2] is 113 pM. Moreover, in experiment [3], the Kd was ~50 nM.
Turning to VEGFA (from UniProt P15692), the Kd in experiment [4] is 50 nM.

B1: VGB3 (mimetic decapeptide based on VEGFB) (peptide)
peptide: H-ECRPPDDGLC-OH
modifications: disulfide 2-10 (inferred)
notes: VEGFB, strand beta7, printed as 102-ECRP-105; VEGFB, loop connecting beta3 to beta4, printed as 62-PDDGL-66; Cys residue added to the C terminus to make the disulfide bond; also called VGB3 peptide; source: synthetic peptide (solid-phase peptide synthesis)
By stoichiometry N is commonly meant a count of units in the complex or per binding partner. In experiment [5], B1 yielded a percent displacement of btVEGF165 (100 pM) at 100 μM VGB3 of 63%. In experiment [6], this molecule yielded an inhibition of VEGF165 (0.75 pM)-stimulated proliferation of 4T1 mammary carcinoma cells (MTT assay), IC50 of 30 nM. Further, in experiment [7], binding was put at a Kd of 1960 ± 690 nM and the “stoichiometry N” value came out at 1.
